In paper PMC12677587, “UHRF1 Controls the Timing of RAD51 Removal During DNA Damage Repair Through Suppressing RFWD3” (Advanced Science, 2025):

Columns and labels:
RAD51 = RAD51 (UniProt Q06609); assay: co-IP of FLAG-UHRF1 and RAD51-HA; settings: reference: wild type; sites S661
His-UHRF1 [1] = biological target: T1, His-UHRF1 (UniProt Q96T88-1 1-793); assay: pull-down; GST pull-down: purified GST-RFWD3 on Glutathione resin, purified His-tagged UHRF1 proteins, 3 h at 4 °C in BCA buffer (20 mM Tris-HCl pH 7.4, 100 mM NaCl); washes with 300 mM NaCl; western blotting; settings: both partners purified
T1 construct: UHRF1; last residue R793; source: E. coli BL21(DE3), purified (Ni-NTA agarose)
T1 sequence (looked up): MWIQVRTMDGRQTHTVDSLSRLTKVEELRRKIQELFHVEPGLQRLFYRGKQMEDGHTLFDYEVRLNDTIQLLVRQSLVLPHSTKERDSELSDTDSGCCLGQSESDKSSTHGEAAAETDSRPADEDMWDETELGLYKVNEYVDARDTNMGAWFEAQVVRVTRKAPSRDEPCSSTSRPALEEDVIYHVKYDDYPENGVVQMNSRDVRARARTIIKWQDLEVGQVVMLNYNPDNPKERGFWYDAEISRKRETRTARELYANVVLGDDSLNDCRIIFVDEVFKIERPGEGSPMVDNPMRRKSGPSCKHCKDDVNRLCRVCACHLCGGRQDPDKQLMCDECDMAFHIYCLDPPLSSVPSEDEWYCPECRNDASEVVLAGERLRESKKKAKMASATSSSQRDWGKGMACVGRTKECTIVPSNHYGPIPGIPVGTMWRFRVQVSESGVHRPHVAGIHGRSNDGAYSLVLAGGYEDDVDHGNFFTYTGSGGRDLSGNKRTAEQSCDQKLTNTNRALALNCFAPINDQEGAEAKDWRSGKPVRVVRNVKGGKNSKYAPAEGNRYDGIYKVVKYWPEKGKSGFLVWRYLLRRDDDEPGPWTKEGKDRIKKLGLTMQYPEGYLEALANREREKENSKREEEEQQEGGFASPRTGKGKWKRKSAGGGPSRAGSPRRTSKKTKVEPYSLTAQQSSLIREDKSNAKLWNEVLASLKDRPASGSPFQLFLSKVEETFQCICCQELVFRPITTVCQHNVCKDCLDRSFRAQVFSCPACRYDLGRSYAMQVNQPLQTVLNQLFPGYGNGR

GST-UHRF1 = biological target: T2, GST-UHRF1 (UniProt Q96T88-1 1-793); assay: pull-down; His pull-down: purified His-RAD51 on Ni-chelated beads, GST-UHRF1 with increasing amounts of GST-RFWD3; Binding Buffer A (50 mM Tris-HCl pH 7.5-8.0, 50 mM NaCl), washes with 20 mM imidazole; western blotting; settings: both partners purified
T2 construct: UHRF1; source: E. coli BL21(DE3), purified (Glutathione resin)
T2 sequence (looked up): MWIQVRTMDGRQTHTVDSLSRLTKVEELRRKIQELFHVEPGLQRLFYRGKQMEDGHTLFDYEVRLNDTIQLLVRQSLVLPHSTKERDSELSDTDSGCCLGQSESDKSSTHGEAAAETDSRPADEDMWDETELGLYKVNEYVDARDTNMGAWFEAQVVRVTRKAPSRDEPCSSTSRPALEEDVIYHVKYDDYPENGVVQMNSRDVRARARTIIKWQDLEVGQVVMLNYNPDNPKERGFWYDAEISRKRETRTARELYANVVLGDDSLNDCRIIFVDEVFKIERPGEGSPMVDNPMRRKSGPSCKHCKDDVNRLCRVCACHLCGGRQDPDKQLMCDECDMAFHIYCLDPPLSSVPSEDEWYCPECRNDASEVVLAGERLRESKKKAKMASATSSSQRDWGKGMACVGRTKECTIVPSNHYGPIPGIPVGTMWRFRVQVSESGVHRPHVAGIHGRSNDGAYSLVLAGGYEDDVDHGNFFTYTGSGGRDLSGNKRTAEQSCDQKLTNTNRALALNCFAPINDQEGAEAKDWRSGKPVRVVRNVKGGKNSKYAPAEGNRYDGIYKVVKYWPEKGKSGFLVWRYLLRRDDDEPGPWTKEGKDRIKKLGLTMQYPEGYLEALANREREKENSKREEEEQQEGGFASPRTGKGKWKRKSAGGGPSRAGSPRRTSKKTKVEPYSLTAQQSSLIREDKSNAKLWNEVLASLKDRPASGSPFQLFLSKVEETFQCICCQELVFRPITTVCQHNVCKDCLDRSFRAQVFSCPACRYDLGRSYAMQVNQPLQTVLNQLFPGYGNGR

His-UHRF1 [2] = biological target: T1, His-UHRF1; assay: pull-down; GST pull-down: GST-RFWD3 on Glutathione resin precipitating His-UHRF1 with His-RAD51 or His-RAD51^R254Q added; His-tagged proteins detected by western blotting; settings: both partners purified

Molecule: UHRF1 (from UniProt Q96T88) S661A
- binding against the reference (RAD51): stronger

B1: GST-RFWD3 (natural protein, UniProt Q6PCD5 1-774, looked up)
chain: MAHEAMEYDVQVQLNHAEQQPAPAGMASSQGGPALLQPVPADVVSSQGVPSILQPAPAEVISSQATPPLLQPAPQLSVDLTEVEVLGEDTVENINPRTSEQHRQGSDGNHTIPASSLHSMTNFISGLQRLHGMLEFLRPSSSNHSVGPMRTRRRVSASRRARAGGSQRTDSARLRAPLDAYFQVSRTQPDLPATTYDSETRNPVSEELQVSSSSDSDSDSSAEYGGVVDQAEESGAVILEEQLAGVSAEQEVTCIDGGKTLPKQPSPQKSEPLLPSASMDEEEGDTCTICLEQWTNAGDHRLSALRCGHLFGYRCISTWLKGQVRKCPQCNKKARHSDIVVLYARTLRALDTSEQERMKSSLLKEQMLRKQAELESAQCRLQLQVLTDKCTRLQRRVQDLQKLTSHQSQNLQQPRGSQAWVLSCSPSSQGQHKHKYHFQKTFTVSQAGNCRIMAYCDALSCLVISQPSPQASFLPGFGVKMLSTANMKSSQYIPMHGKQIRGLAFSSYLRGLLLSASLDNTIKLTSLETNTVVQTYNAGRPVWSCCWCLDEANYIYAGLANGSILVYDVRNTSSHVQELVAQKARCPLVSLSYMPRAASAAFPYGGVLAGTLEDASFWEQKMDFSHWPHVLPLEPGGCIDFQTENSSRHCLVTYRPDKNHTTIRSVLMEMSYRLDDTGNPICSCQPVHTFFGGPTCKLLTKNAIFQSPENDGNILVCTGDEAANSALLWDAASGSLLQDLQTDQPVLDICPFEVNRNSYLATLTEKMVHIYKWE
notes: RFWD3 (ring finger and WD repeat domain 3); source: E. coli BL21(DE3), purified (Glutathione resin)
- binding result (His-UHRF1 [1]): binds

B2: His-RAD51 (natural protein, UniProt Q06609 1-339, looked up)
chain: MAMQMQLEANADTSVEEESFGPQPISRLEQCGINANDVKKLEEAGFHTVEAVAYAPKKELINIKGISEAKADKILAEAAKLVPMGFTTATEFHQRRSEIIQITTGSKELDKLLQGGIETGSITEMFGEFRTGKTQICHTLAVTCQLPIDRGGGEGKAMYIDTEGTFRPERLLAVAERYGLSGSDVLDNVAYARAFNTDHQTQLLYQASAMMVESRYALLIVDSATALYRTDYSGRGELSARQMHLARFLRMLLRLADEFGVAVVITNQVVAQVDGAAMFAADPKKPIGGNIIAHASTTRLYLRKGRGETRICKIYDSPCLPEAEAMFAINADGVGDAKD
notes: RAD51 recombinase; also called purified RAD51; source: E. coli BL21(DE3), purified (Ni-NTA agarose)
- binding result (GST-UHRF1): binds
- binding result (His-UHRF1 [2]): binds
